What was measured:
[1] = tested on: OC-3-VGH ovarian cancer cells; test: MTT assay, anti-proliferative effects; type: cell-based, human; settings: 48 hrs; GnRH 0.1 μg/ml, Antide 0.1 and 0.2 μg/ml, GHR-106 10 and 20 μg/ml
Experimental: Anti-proliferative effects of GnRH and GHR-106 monoclonal antibody on the growth of cultured cancer cells were also studied by MTT assay. An MTT assay was performed on cancer cells on a 24-well plate, as described by Choi, J-H, et al., Endocrine-Related Cancer (2006) 13:641-651.
1×10^4 Cells were dispensed into each well and cultured for 48 hours. Following removal of cultured media, fresh medium containing GnRH (0.1 μg/ml) or GHR-106 (10 μg/ml) was added to each well for additional 48 hours incubation. After the culture medium was removed, 200 μl of MTT (3-(4,5-dimethylthiazol-2-yl)-2,5-diphenyltetrazoliumbromide) (2.5 mg/ml in PBS, Sigma) was added to each well. After 5 hours of incubation with MTT at 37° C. in a 5% CO2 incubator, the supernatant was removed, and 200 μl of dimethylsulfoxide (DMSO) was added to each well, and shaking at 150 rpm for 5 min. Absorbance at 560 nm was determined spectrophotometrically. The negative control containing cells without any antibody treatment served as the negative control.

[2] = tested on: ribosomal proteins (P0, P1, P2 and L37) mRNA in OC-3-VGH cancer cells; test: Semi-quantitative RT-PCR of mRNA expression of ribosomal proteins; type: cell-based, human; settings: 24 hours, GHR-106 10 μg/ml, GnRH 0.1 μg/ml, relative to GAPDH
Text: Four ribosomal proteins (P0, P1, P2 and L37) were selected for semi-quantitative analysis of mRNA expression. Expression of mRNA of GAPDH gene was used as the internal control. Primers for amplification were as follows:
A housekeeping gene, glyceraldehyde-3-phosphate dehydrogenase (GAPDH) was amplified to check the functional integrity of cDNA and used as internal control by using 5′-[…]-3′ (sense) (SEQ ID NO:20) and 5′-[…]-3′ (antisense) (SEQ ID NO:21) as primers (805 bp) (11).
RNA extraction, cDNA preparation and PCR amplification were conducted as described above in Preparation A.
Percent changes in RT-PCR signals which represent levels of P0, P1, P2, and L37 ribosomal proteins are presented with respect to GAPDH (100%) at 0 and 24 hrs. Messenger RNA expression of these genes of cultured cells without GHR-106 treatment served as the internal negative control and those with GnRH treatment served as positive control.

[3] = target: T1, GnRH receptor on OC-3-VGH cancer cells (Homo sapiens, UniProt P30968); test: Competition with GHR-106 for binding to microwells coated with OC-3-VGH cancer cells; settings: 2 μg/ml GHR-106; GnRH 0.1 to 10 μg/ml
T1 construct: endogenous in cells; host or cells: OC-3-VGH ovarian cancer cells
T1 sequence (P30968 1-328): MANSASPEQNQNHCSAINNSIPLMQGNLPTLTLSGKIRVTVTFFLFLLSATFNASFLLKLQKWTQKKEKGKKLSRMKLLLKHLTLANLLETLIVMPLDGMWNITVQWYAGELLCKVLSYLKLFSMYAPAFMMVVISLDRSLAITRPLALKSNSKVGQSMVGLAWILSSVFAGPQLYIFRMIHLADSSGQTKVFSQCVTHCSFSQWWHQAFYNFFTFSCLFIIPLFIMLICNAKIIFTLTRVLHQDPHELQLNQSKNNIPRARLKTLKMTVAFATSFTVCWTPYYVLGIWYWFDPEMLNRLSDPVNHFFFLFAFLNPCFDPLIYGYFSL
Experimental: (§1) Microwells coated with synthetic peptide or cancer cells were used to estimate the affinity constant between GHR-106 and GnRH receptor. Following one hour incubation at 37° C. with GHR-106 in microwells, goat anti-mouse IgG labeled with alkaline phosphatase served as the second antibody for signal detection with p-nitrophenylphosphate.
The decrease in relative signal intensity of antibody binding to cancer cells with increasing GnRH concentrations ranging from 0.1 to 10 μg/ml is shown in FIG. 3A.

DU-145 = test: TUNEL apoptosis assay, DU-145; type: cell-based, human; settings: 24-hour treatment
A549 = test: TUNEL apoptosis assay, A549; type: cell-based, human; settings: 24-hour treatment
MDA-MB-435S = test: TUNEL apoptosis assay, MDA-MB-435S; type: cell-based, human; settings: 24-hour treatment
human GnRH receptor = target: T2, human GnRH receptor (Homo sapiens, UniProt P30968); test: Western blot assay of OC-3-VGH ovarian cancer cell extract; type: binding; settings: OC-3-VGH cancer cell extract
T2 construct: endogenous in cells; host or cells: OC-3-VGH ovarian cancer cells
T2 sequence (P30968 1-328): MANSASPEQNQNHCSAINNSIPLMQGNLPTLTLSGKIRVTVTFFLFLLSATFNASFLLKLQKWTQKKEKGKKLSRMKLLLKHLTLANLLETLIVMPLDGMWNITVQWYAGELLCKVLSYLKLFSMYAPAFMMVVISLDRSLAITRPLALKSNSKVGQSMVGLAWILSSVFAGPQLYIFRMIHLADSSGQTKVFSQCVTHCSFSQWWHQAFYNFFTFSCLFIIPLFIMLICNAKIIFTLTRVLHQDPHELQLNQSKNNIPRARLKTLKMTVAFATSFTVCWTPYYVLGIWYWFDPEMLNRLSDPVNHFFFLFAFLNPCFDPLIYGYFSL
Experimental: Western blot assay was performed with GHR-106 using alkaline phosphatase-labeled goat anti-mouse IgG as the detecting probe.

OC-3-VGH cancer cells = test: ELISA, dose-dependent binding to microwells coated with cancer cells; parameters: species or system human; settings: one hour incubation at 37° C.
Experimental: as §1

[4] = target: T3, synthetic peptide corresponding to the N-terminal 1-29 amino acid residues of human GnRH receptor (Homo sapiens, UniProt P30968); test: ELISA, dose-dependent binding to microwells coated with synthetic peptide; settings: one hour incubation at 37° C.
T3 construct: purchased Gemed Lab, South San Francisco, Calif. and Genescript, NJ (custom synthesis)
T3 sequence (P30968 1-29 limits assumed): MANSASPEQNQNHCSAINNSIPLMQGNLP
Experimental: as §1

“Gonadotropin releasing hormone [GnRH I, reference compound]” was tested. Which “anti-proliferative effect (relative absorbance at 560 nm normalized with negative control)” value [1] did it give?
Its value is “significantly inhibit the growth of cultured cancer cells”.

What about the “mRNA expression of four ribosomal proteins (P0, P1, P2 and L37)” value [2] of the same molecule?
The value was “down regulation of mRNA expression”.

How did the “inhibition of the binding of GHR-106 to cancer cells coated on microwells” value [3] turn out when “MANSASPEQNQNHCSAINNSIPLMQGNLP (SEQ ID NO:7) (PEPTIDE (1)...(29) extracellular domain of human GnRH receptor; listed as Homo sapiens) [1-29 synthetic peptide, synthetic peptide corresponding to N-terminal residues 1-29 of human GnRH receptor]” was run?
Its value is “inhibit GHR-106 binding”.

With Antide as the molecule, how does the “anti-proliferative effect (relative absorbance at 560 nm normalized with negative control)” value [1] read?
Its value is “induce apoptosis, although to a much lesser extent”.

What does the source list for “RP215: antibody used as positive control in the apoptosis assay [reference compound]”?
% Apoptosis (Negative Control*) (DU-145; DU-145, 10 μg/mL): 32 ± 7 (12 ± 3)^+ %; % Apoptosis (Negative Control*) (DU-145; DU-145, 20 μg/mL): 43 ± 4 (19 ± 15)^− %; % Apoptosis (Negative Control*) (A549; A549, 10 μg/mL): 30 ± 9 (11 ± 5)^+ %; % Apoptosis (Negative Control*) (A549; A549, 20 μg/mL): 36 ± 12 (17 ± 3)^+ %; % Apoptosis (Negative Control*) (MDA-MB-435S; 20 μg/mL): 37 ± 8 (6 ± 1)^+ %

B1: GHR-106: monoclonal antibody against synthetic peptide of positions 1-29 of the extracellular domain of human GnRH receptor; hybridoma ATCC PTA-10252 (antibody, V domains shown)
VL: MDSQAQVLILLLLWVSGTCGDIVMSQSPSSLAVSAGEKVTMSCKSSQSLLNSRTRKNYLAWYQQKPGQSPKLLIYWASTRESGVPDRFTGSGSGTDFTLTISSVQAEDLAVYYCKQSYNLYTFGGGTKLEIK
VH: QVQLKESGPGLVAPSQSLSITCTVSGFSLSRYSVHWVRQPPGKGLEWLGMIWGGGSTDYNSALKSRLSISKDNSKSQVFLKMNSLQTDDTAMYYCARGNDGYYSFAYWGQGTLVTVSS
modifications: Synthetically constructed monoclonal antibody GHR106
Which results are given for B1?
molecular weight of protein band recognized in Western blot (human GnRH receptor): approximately 60 KDa; anti-proliferative effect (relative absorbance at 560 nm normalized with negative control) [1]: significantly inhibit the growth of cultured cancer cells; % Apoptosis (Negative Control*) (DU-145; DU-145, 10 μg/mL): 32 ± 2 (12 ± 3)^+ %; % Apoptosis (Negative Control*) (DU-145; DU-145, 20 μg/mL): 32 ± 5 (19 ± 15)^− %; dose-dependent binding to OC-3-VGH cancer cells coated on microwells (OC-3-VGH cancer cells): dose-dependent binding; % Apoptosis (Negative Control*) (A549; A549, 10 μg/mL): 34 ± 10 (11 ± 5)^+ %; % Apoptosis (Negative Control*) (A549; A549, 20 μg/mL): 46 ± 11 (17 ± 3)^+ %; mRNA expression of four ribosomal proteins (P0, P1, P2 and L37) [2]: significant decrease in expression; dose-dependent binding to 1-29 synthetic peptide coated onto microwells [4]: dose-dependent binding; % Apoptosis (Negative Control*) (MDA-MB-435S; 10 μg/mL): 31 ± 4 (7 ± 2)^+ %; % Apoptosis (Negative Control*) (MDA-MB-435S; 20 μg/mL): 45 ± 11 (6 ± 1)^+ %

B2: GHR-103: monoclonal antibody to human GnRH receptor; amino acid sequence determined to be the same as that of GHR-106 (antibody, V domains shown)
VL: MDSQAQVLILLLLWVSGTCGDIVMSQSPSSLAVSAGEKVTMSCKSSQSLLNSRTRKNYLAWYQQKPGQSPKLLIYWASTRESGVPDRFTGSGSGTDFTLTISSVQAEDLAVYYCKQSYNLYTFGGGTKLEIK
VH: QVQLKESGPGLVAPSQSLSITCTVSGFSLSRYSVHWVRQPPGKGLEWLGMIWGGGSTDYNSALKSRLSISKDNSKSQVFLKMNSLQTDDTAMYYCARGNDGYYSFAYWGQGTLVTVSS
With B2 as the molecule, how does the “molecular weight of protein band recognized in Western blot” value (human GnRH receptor) read?
The value was 60 KDa.

And the “dose-dependent binding to OC-3-VGH cancer cells coated on microwells” value (OC-3-VGH cancer cells)?
The value was “dose-dependent binding”.

What about the “dose-dependent binding to 1-29 synthetic peptide coated onto microwells” value [4] of the same molecule?
Its value is “dose-dependent binding”.

Source: US8361793B2, “Monoclonal antibodies against gonadotropin-releasing hormone receptor” (Vancouver Biotech Ltd., priority 2009, dated 2013)
